Measured values reported in patent publication US7407934.
Numbering of substitutions follows the chain as printed. Positions of bridges follow the written chain, without caps; N, C: chain ends. No end group written: not given here.

B1: 25Pro26Val28,29Pro-h-Amylin (peptide)
peptide: KCNTATCATQRLANFLVHSSNNFGPVLPPTNVGSNTY
modifications: 2,7-disulfide; made on methylbenzhydrylamine resin (C-terminal amide not printed in so many words)
B2: 18Arg25,28Pro-h-Amylin (peptide)
peptide: B1 peptide with H18R, V26I, P29S
modifications: 2,7-disulfide; made on methylbenzhydrylamine resin (C-terminal amide not printed in so many words)
B3: 18Arg25,28,29Pro-h-Amylin (peptide)
peptide: B1 peptide with H18R, V26I
modifications: 2,7-disulfide; made on methylbenzhydrylamine resin (C-terminal amide not printed in so many words)
B4: des-1Lys18Arg25,28Pro-h-Amylin (peptide)
peptide: CNTATCATQRLANFLVRSSNNFGPILPSTNVGSNTY
modifications: 2,7-disulfide; made on methylbenzhydrylamine resin (C-terminal amide not printed in so many words)
B5: des-1Lys25,28,29Pro-h-Amylin (peptide)
peptide: B4 peptide with R17H, S28P
modifications: 2,7-disulfide; made on methylbenzhydrylamine resin (C-terminal amide not printed in so many words)
B6: des-1Lys18Arg25,28,29Pro-h-Amylin (peptide)
peptide: B4 peptide with S28P
modifications: 2,7-disulfide; made on methylbenzhydrylamine resin (C-terminal amide not printed in so many words)

Biological target: amylin receptor (rat basal forebrain membranes containing the nucleus accumbens and surrounding regions) (rat)
Assay: competition with 125I-Bolton-Hunter rat amylin on rat basal forebrain membranes, filtration

IC50 [pM] | Binder
26 | KCNTATCATQRLANFLVHSSNNFGPILPSTNVGSNTY (peptide, from a related filing) [25,28Pro-h-Amylin]
18 | B1
32 | B2
21 | B3
310 | KDNTATKATQRLANFLVHSSNNFGAILSSTNVGSNTY (peptide, from a related filing, lactam 2-7; ends not checked) [2,7Cyclo-[2Asp,7Lys]-h-Amylin]
85 | CNTATCATQRLANFLVHSSNNFGPILPSTNVGSNTY (peptide, from a related filing) [des-1Lys25,28Pro-h-Amylin]
82 | B4
14 | B5
21 | B6
